In publication PMC11964265, “Eating the brain - A multidisciplinary study provides new insights into the mechanisms underlying the cytopathogenicity of Naegleria fowleri” (PLOS Pathogens, 2025):

Biological target: the molecule itself
Assay: SEC; analytical size-exclusion chromatography, Superdex 200 Increase 10/300 GL, 20 mM Tris-HCl, 150 mM NaCl, pH 7.5; mass from calibration with Gel Filtration Standard (Bio-Rad)

B1: Naegleria fowleri lysozyme (recombinant) (natural protein)
chain: MSSYYTKEQFFRALHQVESKGQLNPPDGDKGRAIGPLQIWEVYWKDSGIQESYQSVRKFEIAKKCVNRFMKRYAENEWGPTMTIDQVEKCARIHNGGPRGHLKPETDDYWERFKEALENLDDEEVVVVEENDNNDDDQDDNEEESKDHRELLKIGMSGADVEEIQQQLADLGYDLGSYGADGKFGKATQQAVMKFQQDHDLAVDGIVGKETRKALNLEKGEDDQEQQEVADDQQEDDDEQQQQQNKDQPQEQDEEETTNEVKEEEQNDDEHEDPQEEEEQQQEDEQEDPQEEQQEDEDQQEDNDEENDQQQEDDDDQEQQQEEEEQEDPQEEEEQQNDDDDQQDDMEEQQDGDDDNDDDDA
notes: Cloned into pET42b with NdeI/XhoI sites in the primers; Pentamer by analytical SEC only; also called Nf lysozyme; source: E. coli BL21(DE3), purified (Ni-NTA agarose, native conditions)
  stoichiometry N: 5
